From publication PMC8168904, “The Trypanosoma brucei subpellicular microtubule array is organized into functionally discrete subdomains defined by microtubule associated proteins” (PLoS Pathogens, 2021) come the findings set out here.

The target in assay [1] is Taxol-stabilized bovine microtubules labeled with Cy5 (bovine) (UniProt Q6B856). Kind of assay: not stated; (the row names no known assay).
Assay [2] deals with T1, mNeonGreen-PAVE1 (Posterior And Ventral Edge protein 1), tagged at both endogenous alleles (T. brucei (endogenous locus, 427 strain), UniProt Q581X9 1-421).
T1 construct: PAVE1, Trypanosoma brucei, TriTrypDB Tb927.8.2030; expressed from the endogenous locus with an N-terminal tag; also called mNG-PAVE1; dET-mNeonGreen-PAVE1; source: endogenously tagged at both alleles, T. brucei 427 procyclic cells, in sonicated and clarified lysate; not shown: mNeonGreen, N-terminal, kept
T1 sequence (looked up): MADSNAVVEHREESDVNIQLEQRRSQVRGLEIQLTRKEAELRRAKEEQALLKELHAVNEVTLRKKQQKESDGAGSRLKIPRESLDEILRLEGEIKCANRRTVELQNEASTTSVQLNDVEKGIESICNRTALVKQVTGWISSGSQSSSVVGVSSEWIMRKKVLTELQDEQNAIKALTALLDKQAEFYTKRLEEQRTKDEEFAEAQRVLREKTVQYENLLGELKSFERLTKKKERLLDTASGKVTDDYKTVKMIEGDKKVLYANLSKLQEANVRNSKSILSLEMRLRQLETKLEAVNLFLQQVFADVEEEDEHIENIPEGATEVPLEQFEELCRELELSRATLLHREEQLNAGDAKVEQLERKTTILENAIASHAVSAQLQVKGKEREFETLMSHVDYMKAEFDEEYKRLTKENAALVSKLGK
Briefly: affinity purification with mass spectrometry; mNeonGreen-PAVE1 captured from sonicated, clarified T. brucei lysate on magnetic mNeonGreen-Trap nanobody beads, 1 hr 4°C, 6 washes; on-bead tryptic digest and LC-MS/MS, and silver-stained SDS-PAGE of the eluate; WT 427 cells as control. Particulars: partners not purified.

In the case of “PAVE complex (mNeonGreen-PAVE1 with Strep-PAVE2)”, in assay [1], the time that pre-seeded patches remained after wash-out is above 20 min.

B1: PAVE2 (Tb927.9.11540), endogenous (natural protein, T. brucei (endogenous in 427 cells), UniProt Q38DN4 1-438, looked up)
chain: MADVSADSDAQVELERLNDVIDKYTCQVEHIDNLLQELEEENNSDSVSRQIAEYQSALESHPENIPAEDALEVITRLENTLKIVQRRNHLLEKENGTQNRLLEERSNVLLNATKTFDHIVDVTGWHDKFLFDAEDLRSKVADIREMSNIEAVVQKELRVAQGIIKKKEAALRQLEELVEQGKEQEAVLNNVYNDIRVKERDCSEVEMQLVRLRKSVAKTDEALAVFDLHNQNASLAYMESDRDYLRDSVAEMKSTTRRQDNVIKAQLTRQQQLQTRLDVIMKSLREMKLDKKYERNIPKSALVPSASREEPEDVSKILPESECIPVPTYRLLHKNNEMLRVIVMRKNMLVLEKNAVIEALEAGLAKYGSALITTYKEQQDLRQNKDMELIELMDDLQQQHSNYLEKLEELRLQNAALKKKMYRSTRQHAPLKGTRPMR
notes: PAVE2, Trypanosoma brucei, TriTrypDB Tb927.9.11540, predicted MW 51 kDa; also called uncharacterized protein Tb927.9.11540; source: endogenous, T. brucei 427 lysate (mNeonGreen-PAVE1 cells)
Take B1: the “stoichiometry N” value in assay [2] was around 1.

One may read the stoichiometry N as a count of units in the complex or per binding partner.
